# Results published in paper PMC2408616, “Modular Organization and Combinatorial Energetics of Proline–Tyrosine Nuclear Localization Signals” (PLoS Biology, 2008).
# B1: MBP–Nab2p NLS [S. cerevisiae] / Kap104p [yeast (S. cerevisiae)] (parent)
# chain 1: DNSQRFTQRGGGAVGKNRRGGRGGNRGGRNNNSTRFNPLAKALGMAGESNM
# chain 2: MASTWKPAEDYVLQLATLLQNCMSPNPEIRNNAMEAMENFQLQPEFLNYLCYILIEGESDDVLKQHYSLQDLQNNRATAGMLLKNSMLGGNNLIKSNSHDLGYVKSNIIHGLYNSNNNLVSNVTGIVITTLFSTYYRQHRDDPTGLQMLYQLLELTSNGNEPSIKALSKIMEDSAQFFQLEWSGNTKPMEALLDSFFRFISNPNFSPVIRSESVKCINTVIPLQTQSFIVRLDKFLEIIFQLAQNDENDLVRAQICISFSFLLEFRPDKLVSHLDGIVQFMLHLITTVNEEKVAIEACEFLHAFATSPNIPEHILQPYVKDIVPILLSKMVYNEESIVLLEASNDDDAFLEDKDEDIKPIAPRIVKKKEAGNGEDADDNEDDDDDDDDEDGDVDTQWNLRKCSAATLDVMTNILPHQVMDIAFPFLREHLGSDRWFIREATILALGAMAEGGMKYFNDGLPALIPFLVEQLNDKWAPVRKMTCWTLSRFSPWILQDHTEFLIPVLEPIINTLMDKKKDVQEAAISSVAVFIENADSELVETLFYSQLLTSFDKCLKYYKKKNLIILYDAIGRFAEKCALDETAMQIILPPLIEKWALLSDSDKELWPLLECLSCVASSLGERFMPMAPEVYNRAFRILCHCVELEAKSHQDPTIVVPEKDFIITSLDLIDGLVQGLGAHSQDLLFPQGTKDLTILKIMLECLQDPVHEVRQSCFALLGDIVYFFNSELVIGNLEDFLKLIGTEIMHNDDSDGTPAVINAIWALGLISERIDLNTYIIDMSRIILDLFTTNTQIVDSSVMENLSVTIGKMGLTHPEVFSSGAFANDSNWNKWCLSVNALDDVEEKSSAYMGFLKIINLTSTEVTMSNDTIHKIVTGLSSNVEANVFAQEIYTFLMNHSAQISAINFTPDEISFLQQFTS
# B2: MBP–Hrp1p NLS [S. cerevisiae] / Kap104p [yeast (S. cerevisiae)] (parent)
# chain 1: RDRNDRDRDYNHRSGGNHRRNGRGGRGGYNRRNNGYHPYNR
# chain 2: B1 chain 2
# Legend:
# Test in all cases: ITC
# [1] = variants of: B1; settings: with Kap104p [yeast (S. cerevisiae)]; for ratio to parent: parent: 1; for dG: parent: -10
# [2] = variants of: B2; settings: with Kap104p [yeast (S. cerevisiae)]
# [3] = variants of: B2; settings: with Kap104p [yeast (S. cerevisiae)]; for ratio to parent: parent: 1; for Kd: parent: 32 nM
Variant,ddG [1],screen value [1],ratio to parent [1],dG [1],screen value [2],ddG [3],screen value [3],ratio to parent [3],Kd [3]
chain 1 F36L,-0.3 kcal/mol,-8.4 kcal/mol,1.8,-9.7 kcal/mol,–,–,–,–,–
chain 1 R18A R19A R22A R26A R29A P38A L39A,–,–,> 200,–,–,–,–,–,–
chain 1 R18K R19K R22K R26K R29K,-0.4 kcal/mol,-9.9 kcal/mol,0.6,-10.3 kcal/mol,–,–,–,–,–
chain 1 R31A,–,–,–,–,-1.8 kcal/mol/K,0.07 kcal/mol,-11.7 kcal/mol,1.1,–
chain 1 R19K R20K R23K R26K,–,–,–,–,-2.8 kcal/mol/K,-0.05 kcal/mol,-12.8 kcal/mol,1.1,36 nM
chain 1 R19A R20A R23A R26A,–,–,–,–,–,–,–,–,194 nM
chain 1 R19A Y36A,–,–,–,–,-2.2 kcal/mol/K,0.4 kcal/mol,-11.9 kcal/mol,1.9,60 nM
chain 1 R32A,–,–,–,–,-2.2 kcal/mol/K,-0.5 kcal/mol,-12.7 kcal/mol,0.4,–
chain 1 Y36L,–,–,–,–,-0.9 kcal/mol/K,-0.02 kcal/mol,-10.9 kcal/mol,1.1,–
chain 1 Y36A,–,–,–,–,–,–,–,–,143 nM
